This assay addresses OC183B2 (antigens associated with ovarian carcinoma) (human). Put plainly: indirect ELISA of phage-displayed scFv. For orientation: ELISA stands for enzyme-linked immunosorbent assay.

B1: anti-ovarian carcinoma scFv antibody (scFv)
scFv: EVQLQESGPEVKKPGETVRISCKASGYTFTTAGMQWVQKMPGKGLKWLGWINTNSEVPKYAEDFRGRFAFSLETSASTAYLQISNLKNEDTATFFCARSFTWGTMDYWGQGTTVTVSSGGGGSGGGGSGGGGSDVVMTQTPLSLPVSLGDQASISCRSSQTLVHSIGNTYLHWYLQKPGQSPKLLIYKVSNRFSGVPDRFSGSGSGTDFTLKISRVEAEDLGVYFCSQSTHVPYTFGGGTKLELK
B1 gave a binding activity relative to negative control of 2.5 times.

For the origin of these results see patent publication US20080138339A1.
